Results as given in paper PMC4838342 (Nucleic Acids Research, 2015).

How the values were obtained:
[1] = target: H3 115–135 peptide; assay: NMR titration; 1H-15N HSQC of 15N-labelled sNASP (41–330, Δ101–159) titrated with H3 115–135 peptide in PBS; 298 K; assignments in 20 mM NaPO4 pH 7.0, 100 mM NaCl, 5 mM β-mercaptoethanol; conditions: both partners purified
[2] = target: MBP H3 116–135 (human); assay: SEC; analytical gel filtration, Superdex S200 10/300 GL, 20 mM Hepes-KOH pH 7.5, 200 mM sodium chloride; fractions on SDS-PAGE, Coomassie; conditions: both partners purified

Chain of H3 115–135 peptide (peptide, as listed by the source): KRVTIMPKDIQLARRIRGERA

B1: sNASP (41–330, Δ101–159) (domain or fragment)
chain: SEAKKLLGLGQKHLVMGDIPAAVNAFQEAASLLGKKYGETANECGEAFFFYGKSLLELARLENKSLQENEEEEIGNLELAWDMLDLAKIIFKRQETKEAQLYAAQAHLKLGEVSVESENYVQAVEEFQSCLNLQEQYLEAHDRLLAETHYQLGLAYGYNSQYDEAVAQFSKSIEVIENRMAVLNEQVKEAEGSSAEYKKEIEELKELLPEIREKIEDAKESQRSGNVAELA
modifications: 15N (and 13C, 2H) isotope labelled
Q: Does B1 bind [1]?
A: binds

B2: Sim3 (as used in gel filtration) (natural protein, Schizosaccharomyces pombe, UniProt Q9USQ4 1-396, looked up)
chain: MSSDTKTLENSKGNSATDADTKNPSSSDSRAIEQLVTQGNMAYAQKNYEEAVDKYGQALMQSESIHGSESLENRNVLWLYGKSLFQIAIENSQVLGNALGAKESVSQATESFEEPEAIGSFTFSGQKIENKYTVNEENSSIAHPEKESEEKETNEASPASEEDEDDFNVAWEVLDLTRVMQSKAVDAYPDSKDEKIRLADIYDLLGELSLEIENFSQASQDLKTALEWKEKVYNVSNNTLLSEAHYKLALALEFTNPEDPSNKSRACEHVEKAAEILKNVLNERENEVTDKKGKGKQKAEESTLTSDLENLREMLSELEQKTLDLKHGAPSLEEAVMSKMHESSLLSKDSSSLAQAVAEAVKNANDLGGLVKRKRTKQEVTSSSQKEGPKDKKKKD
notes: source: bacteria, purified
Q: Does B2 bind [2]?
A: binds
